{"source": "paper PMC10514967", "about": "“The terpene synthase (TPS) gene family in kiwifruit shows high functional redundancy and a subset of TPS likely fulfil overlapping functions in fruit flavour, floral bouquet and defence” (Molecular Horticulture, 2023)", "key": {"AcLIS/NES": {"system": "AcLIS/NES", "assay": "SPME GC-MS of major terpene product, Michaelis-Menten fit", "format": "biochemical, Actinidia chinensis var. chinensis", "details": "50 mM Bis-Tris propane pH 7.5, 10 mM MgCl2, 30 °C", "excerpt": "SPME GC-MS of major terpene product, Michaelis-Menten fit on AcLIS/NES"}, "[1]": {"substrate": "CC(C)=CCC/C(C)=C/CC/C(C)=C/CO[P@@](=O)(O)OP(=O)(O)O", "assay": "SPME GC-MS of major terpene product, Michaelis-Menten fit", "format": "biochemical, Actinidia chinensis", "details": "50 mM Bis-Tris propane pH 7.5, 10 mM MgCl2, 30 °C", "excerpt": "SPME GC-MS of major terpene product, Michaelis-Menten fit on AcBCS"}}}
{"molecule": "CC(C)=CCC/C(C)=C/CC/C(C)=C/COP(=O)(O)OP(=O)(O)O", "note": "[FDP]", "values": [{"measurement": "Km", "setting": "AcLIS/NES", "value": "7.43 ± 1.25", "unit": "µM"}]}
{"molecule": "CC(C)=CCC/C(C)=C/COP(=O)(O)OP(=O)(O)O", "note": "[GDP]", "values": [{"measurement": "Km", "setting": "AcLIS/NES", "value": "30.9 ± 3.81", "unit": "µM"}]}
{"molecule": "AcBCS (Actinidia chinensis var. chinensis) (protein) MAISCATALPIPTVSTKITMEPLVTRRSANYHPSIWGDHFLAYSSLPTEVDVNMEQEQLHQLKQKVIKMLMAAADKPSQMLNLIDRIQRLGVSYHFKTEIEAALKHIYESDHHFDDLYTVALFFRLLRQQGFPVSCEVFNKFKNNQGKFQECLIGDVVGILCLYEATHLRVRGEEILDEALSFTTTHLESMVPNLSNPVAEHAIHALNQPIHKGLTRLDARQYISFYEQDDSHNKDLLNFAKLDFNLLQKLHQRELCEITRWWKDLDFAKKLPFARDRLVESYFWVLGVYFEPQYWLARRILTKVIAMSSVIDDIYDVYGTLEELALFTDAIERWEISSLDKLPEYMKLCYQALLDIYSTIDEEMAKQGGSYRVYYAKSEMKNLVRGYFEEAKWFHQGYVPSMEEYMQVALLSSGYKMVTTTSFVGMGELATKEAFDWVSSYPLIVEAVSAIARLTDDIVGHKFEQQRGHVASAVECYMKQNGATEEEAIVELYEQVTNAWKDMNAECLYSTKVPMPLLVRVLNLARVINVLYKDEDSYTHSGTRTKNFVTSVLIDSVPIN", "values": [{"measurement": "Km", "setting": "[1]", "value": "1.54 ± 0.54", "unit": "µM"}, {"measurement": "Vmax", "setting": "[1]", "value": 0.013, "unit": "µM/min"}, {"measurement": "kcat", "setting": "[1]", "value": "0.0087 ± 0.002", "unit": "s⁻¹"}, {"measurement": "kcat/Km", "setting": "[1]", "value": "5870 ± 1100", "unit": "M⁻¹ s⁻¹"}]}
